Results taken from doi:10.1101/2025.10.14.682297 (bioRxiv, 2025).

Target: the molecule itself
Assay: cryo-EM structure

B1: human ZNFX1 (NFX1-type zinc finger-containing 1), full-length, 2xStrep-tagged, wild type (enzyme, UniProt Q9P2E3 1-1918, looked up)
chain: MEERRPHLDARPRNSHTNHRGPVDGELPPRARNQANNPPANALRGGASHPGRHPRANNHPAAYWQREERFRAMGRNPHQGRRNQEGHASDEARDQRHDQENDTRWRNGNQDCRNRRPPWSNDNFQQWRTPHQKPTEQPQQAKKLGYKFLESLLQKDPSEVVITLATSLGLKELLSHSSMKSNFLELICQVLRKACSSKMDRQSVLHVLGILKNSKFLKVCLPAYVVGMITEPIPDIRNQYPEHISNIISLLQDLVSVFPASSVQETSMLVSLLPTSLNALRASGVDIEEETEKNLEKVQTIIEHLQEKRREGTLRVDTYTLVQPEAEDHVESYRTMPIYPTYNEVHLDERPFLRPNIISGKYDSTAIYLDTHFRLLREDFVRPLREGILELLQSFEDQGLRKRKFDDIRIYFDTRIITPMCSSSGIVYKVQFDTKPLKFVRWQNSKRLLYGSLVCMSKDNFETFLFATVSNREQEDLCRGIVQLCFNEQSQQLLAEVQPSDSFLMVETTAYFEAYRHVLEGLQEVQEEDVPFQRNIVECNSHVKEPRYLLMGGRYDFTPLIENPSATGEFLRNVEGLRHPRINVLDPGQWPSKEALKLDDSQMEALQFALTRELAIIQGPPGTGKTYVGLKIVQALLTNESVWQISLQKFPILVVCYTNHALDQFLEGIYNCQKTSIVRVGGRSNSEILKQFTLRELRNKREFRRNLPMHLRRAYMSIMTQMKESEQELHEGAKTLECTMRGVLREQYLQKYISPQHWESLMNGPVQDSEWICFQHWKHSMMLEWLGLGVGSFTQSVSPAGPENTAQAEGDEEEEGEEESSLIEIAEEADLIQADRVIEEEEVVRPQRRKKEESGADQELAKMLLAMRLDHCGTGTAAGQEQATGEWQTQRNQKKKMKKRVKDELRKLNTMTAAEANEIEDVWQLDLSSRWQLYRLWLQLYQADTRRKILSYERQYRTSAERMAELRLQEDLHILKDAQVVGMTTTGAAKYRQILQKVEPRIVIVEEAAEVLEAHTIATLSKACQHLILIGDHQQLRPSANVYDLAKNFNLEVSLFERLVKVNIPFVRLNYQHRMCPEIARLLTPHIYQDLENHPSVLKYEKIKGVSSNLFFVEHNFPEQEIQEGKSHQNQHEAHFVVELCKYFLCQEYLPSQITILTTYTGQLFCLRKLMPAKTFAGVRVHVVDKYQGEENDIILLSLVRSNQEGKVGFLQISNRICVALSRAKKGMYCIGNMQMLAKVPLWSKIIHTLRENNQIGPMLRLCCQNHPETHTLVSKASDFQKVPEGGCSLPCEFRLGCGHVCTRACHPYDSSHKEFQCMKPCQKVICQEGHRCPLVCFQECQPCQVKVPKTIPRCGHEQMVPCSVPESDFCCQEPCSKSLRCGHRCSHPCGEDCVQLCSEMVTIKLKCGHSQPVKCGHVEGLLYGGLLVKCTTKCGTILDCGHPCPGSCHSCFEGRFHERCQQPCKRLLICSHKCQEPCIGECPPCQRTCQNRCVHSQCKKKCGELCSPCVEPCVWRCQHYQCTKLCSEPCNRPPCYVPCTKLLVCGHPCIGLCGEPCPKKCRICHMDEVTQIFFGFEDEPDARFVQLEDCSHIFEVQALDRYMNEQKDDEVAIRLKVCPICQVPIRKNLRYGTSIKQRLEEIEIIKEKIQGSAGEIATSQERLKALLERKSLLHQLLPEDFLMLKEKLAQKNLSVKDLGLVENYISFYDHLASLWDSLKKMHVLEEKRVRTRLEQVHEWLAKKRLSFTSQELSDLRSEIQRLTYLVNLLTRYKIAEKKVKDSIAVEVYSVQNILEKTCKFTQEDEQLVQEKMEALKATLPCSGLGISEEERVQIVSAIGYPRGHWFKCRNGHIYVIGDCGGAMERGTCPDCKEVIGGTNHTLERSNQLASEMDGAQHAAWSDTANNLMNFEEIQGMM
  stoichiometry N: 2
